Measured values reported in patent publication US8431396B2, “Anti-angiogenic peptides” (The Cleveland Clinic Foundation, priority 2003, dated 2013).

Columns and labels:
[1] = tested on: chick embryo chorioallantoic membrane (CAM); assay: Chick embryo chorioallantoic membrane (CAM) assay of VEGF-mediated angiogenesis; format: in vivo, chicken; conditions: VEGF165 100 ng
Text: The CAM assay was done as described with slight modifications. Fertilized 3-day-old white Leghorn eggs (Sunnyside, Beaver Dam, Wis.) were cracked and embryos with the yolk intact were placed in glass-bottomed Petri dishes. […] Angiogenesis was reported as the angiogenic index (mean number of tertiary branchpoints from experimental conditions minus the mean number of branchpoints from buffer controls with no angiogenic stimulator).

[2] = tested on: MDA-MB435 human breast carcinoma cells; assay: Tumors from mice injected with MDA-MB435 cells transfected with TIMP3, von Willebrand factor staining; format: in vivo; conditions: von Willebrand factor immunostaining; TIMP3-transfected tumor cells
Text: Brown reaction product depicts endothelial cells lining the vessels.

endothelial cells = assay: DNA synthesis ([3H]thymidine uptake) of endothelial cells in response to VEGF165; format: cell-based; conditions: TIMP3 at 1 μg/ml and 10 μg/ml
Experimental: (A) Proliferative response of PAE-KDR cells to VEGF165 (5 ng/ml; left) and VEGF121 (30 ng/ml; right). […] (C) DNA synthesis of endothelial cells in response to VEGF165. […] [3H]thymidine incorporation was measured during the last 5 h of incubation. (D) Analysis of endothelial cell expressing TIMP3. […] Expression of TIMP3 protein was determined by immunoblotting with antibody against TIMP3 (top left). MMP-inhibitory activity was determined by reverse zymography (top right). Corresponding densito-metric quantitation is expressed as arbitrary optical density (OD) units±s.d. (C) DNA synthesis in adenovirus-infected cells in response to VEGF. […] In all proliferation experiments, total number of cells was counted at 48 h. Proliferating cell number is expressed as means±s.e.m. of quadruplicate samples. DNA synthesis data represent the means±s.e.m. of triplicate samples; similar results were obtained in at least 2 different experiments. *, P<0.01.
(§1) A modified Boyden chamber assay for migration and proliferation assays were carried out as described.

[3] = tested on: MS1 mouse endothelial cells; assay: MS1 endothelial cells infected with adenovirus expressing WT-TIMP3 or TIMP3Cys1-Ser: apoptosis and [3H]thymidine incorporation; format: cell-based; conditions: MS1 cells infected with wild-type or mutant virus
Experimental: MS1 mouse endothelial cells\(American Type Culture Collection, Manassas, Va.) were cultured until 80% confluent and infected with adenovirus as described. Cells were infected at 50 or 200 plaque-forming units per cell for 18 h. Medium was then replaced with fresh complete medium and left for 48 h until analysis.
as §1

KDR = target: T1, KDR (Homo sapiens, UniProt P35968); assay: VEGF165-induced KDR phosphorylation (immunoprecipitation/immunoblot); format: cell-based; conditions: 1 μg/ml; PAE-KDR cells
T1 construct: To determine whether these receptor isoforms represent full-length VEGFR-2; expressed in transfected cells; host or cells: porcine aortic endothelial (PAE) cells
T1 sequence (P35968 20-1356): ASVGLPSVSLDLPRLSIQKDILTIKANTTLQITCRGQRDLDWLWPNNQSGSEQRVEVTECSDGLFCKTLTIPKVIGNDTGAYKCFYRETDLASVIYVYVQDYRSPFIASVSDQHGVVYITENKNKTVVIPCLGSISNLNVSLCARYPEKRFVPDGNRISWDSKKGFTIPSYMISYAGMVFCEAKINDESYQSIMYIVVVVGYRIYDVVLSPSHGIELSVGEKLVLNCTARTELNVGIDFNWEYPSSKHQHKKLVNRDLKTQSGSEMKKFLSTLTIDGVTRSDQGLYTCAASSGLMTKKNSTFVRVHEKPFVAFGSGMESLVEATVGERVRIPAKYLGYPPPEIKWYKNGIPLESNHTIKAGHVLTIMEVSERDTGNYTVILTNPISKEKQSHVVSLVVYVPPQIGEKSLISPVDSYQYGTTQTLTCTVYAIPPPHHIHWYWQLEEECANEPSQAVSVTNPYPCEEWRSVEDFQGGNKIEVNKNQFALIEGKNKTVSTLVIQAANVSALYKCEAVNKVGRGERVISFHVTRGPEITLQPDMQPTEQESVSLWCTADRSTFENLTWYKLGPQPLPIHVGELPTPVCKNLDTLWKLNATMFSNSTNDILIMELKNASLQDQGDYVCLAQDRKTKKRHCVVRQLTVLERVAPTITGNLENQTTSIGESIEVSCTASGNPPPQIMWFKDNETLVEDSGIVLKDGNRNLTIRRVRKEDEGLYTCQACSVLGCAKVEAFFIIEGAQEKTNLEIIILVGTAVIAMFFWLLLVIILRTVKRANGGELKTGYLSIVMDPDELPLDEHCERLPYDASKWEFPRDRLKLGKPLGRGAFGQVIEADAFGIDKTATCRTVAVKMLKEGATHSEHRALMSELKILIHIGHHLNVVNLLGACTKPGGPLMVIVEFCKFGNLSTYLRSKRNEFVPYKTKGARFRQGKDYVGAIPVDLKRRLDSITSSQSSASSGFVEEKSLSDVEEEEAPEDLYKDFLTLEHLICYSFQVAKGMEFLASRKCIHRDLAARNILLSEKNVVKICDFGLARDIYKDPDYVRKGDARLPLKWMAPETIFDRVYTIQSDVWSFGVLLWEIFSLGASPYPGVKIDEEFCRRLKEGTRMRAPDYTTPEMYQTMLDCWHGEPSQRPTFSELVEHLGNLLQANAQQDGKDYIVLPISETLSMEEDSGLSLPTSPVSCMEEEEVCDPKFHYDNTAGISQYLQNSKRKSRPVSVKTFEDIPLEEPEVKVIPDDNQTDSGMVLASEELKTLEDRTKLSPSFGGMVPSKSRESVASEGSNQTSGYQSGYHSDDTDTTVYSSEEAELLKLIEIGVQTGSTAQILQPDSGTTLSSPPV
Experimental: PDGF-BB-mediated phosphorylation was examined similarly in PAESPDGFR-β cells (anti-PDGFR-β; top right panel). […] PDGF-BB-mediated phosphorylation of PDGFR-β in PAE-PDGFR-β cells overexpressing TIMP3 (top right). KDR protein or PDGFR-β protein was analyzed by both immunoprecipitation and immunoblotting with antibodies specific for KDR (left) or for PDGFR-β (right; A and B, second panels from top). […] Total protein levels of ERK were determined by immunoblotting with antibodies specific for ERK1/2 (anti-ERK1/2; A and B, bottom).
Cell fractions, prepared as described earlier, or immunoprecipitates of the lysates with the indicated antibodies, were subjected to SDS-PAGE. Proteins were detected with horseradish peroxidase-conjugated antibodies specific for either rabbit or mouse IgG (Amersham Pharmacia, Piscataway, N.J.) followed by enhanced chemiluminescence.

PDGFR-β = target: T2, PDGFR-β (Homo sapiens, UniProt P09619); assay: [125I]PDGF-BB binding to PAE-PDGFR-β cells; conditions: recombinant TIMP3 or overexpression
T2 construct: expressed in transfected cells; host or cells: porcine aortic endothelial (PAE) cells
T2 sequence (P09619 33-1106, species assumed): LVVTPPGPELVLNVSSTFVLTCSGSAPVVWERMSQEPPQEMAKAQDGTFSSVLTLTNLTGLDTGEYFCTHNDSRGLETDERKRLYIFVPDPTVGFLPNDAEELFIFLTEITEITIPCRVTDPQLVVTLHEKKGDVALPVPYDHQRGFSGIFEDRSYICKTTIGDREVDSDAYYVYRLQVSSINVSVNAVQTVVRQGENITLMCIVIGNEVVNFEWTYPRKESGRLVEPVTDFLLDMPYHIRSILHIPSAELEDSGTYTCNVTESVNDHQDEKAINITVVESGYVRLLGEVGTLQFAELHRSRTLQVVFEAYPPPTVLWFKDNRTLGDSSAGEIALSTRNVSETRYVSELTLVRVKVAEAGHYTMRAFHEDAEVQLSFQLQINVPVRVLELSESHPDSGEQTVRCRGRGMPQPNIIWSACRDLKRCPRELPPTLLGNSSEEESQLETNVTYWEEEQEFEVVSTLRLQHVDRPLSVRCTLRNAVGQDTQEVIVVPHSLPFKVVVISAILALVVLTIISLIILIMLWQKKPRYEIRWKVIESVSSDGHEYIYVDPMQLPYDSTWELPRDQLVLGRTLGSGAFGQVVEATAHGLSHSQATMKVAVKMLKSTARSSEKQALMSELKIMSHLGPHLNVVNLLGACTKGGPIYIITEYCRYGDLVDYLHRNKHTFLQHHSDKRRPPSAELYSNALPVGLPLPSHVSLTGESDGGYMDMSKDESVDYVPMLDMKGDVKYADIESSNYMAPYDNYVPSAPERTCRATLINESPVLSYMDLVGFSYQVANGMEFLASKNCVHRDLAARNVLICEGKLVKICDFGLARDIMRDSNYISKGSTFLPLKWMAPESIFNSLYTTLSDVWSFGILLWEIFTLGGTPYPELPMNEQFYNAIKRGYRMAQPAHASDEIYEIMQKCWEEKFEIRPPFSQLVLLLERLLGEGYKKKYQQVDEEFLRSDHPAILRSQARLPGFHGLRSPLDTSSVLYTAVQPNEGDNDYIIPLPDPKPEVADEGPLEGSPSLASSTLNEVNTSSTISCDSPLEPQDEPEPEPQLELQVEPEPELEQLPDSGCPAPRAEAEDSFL
Experimental: Radioligand binding is expressed as percent binding and is the mean±s.e.m. of triplicate samples. […] All values are expressed as mean±s.e.m. of triplicate samples. […] Binding is expressed as mean±s.e.m.
Data were analyzed by Scatchard plot analyses.

VEGF = target: T3, VEGF (Homo sapiens, UniProt P15692); assay: Solid-phase direct binding of [125I]VEGF to wells coated with TIMPs
T3 construct: purchased Genentech (gift, not bought)
T3 sequence (P15692 27-191 isoform P15692-4): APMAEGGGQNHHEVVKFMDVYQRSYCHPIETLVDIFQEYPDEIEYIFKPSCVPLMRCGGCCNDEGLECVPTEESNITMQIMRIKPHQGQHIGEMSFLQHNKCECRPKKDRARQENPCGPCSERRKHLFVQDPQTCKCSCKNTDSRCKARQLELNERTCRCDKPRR

VEGFR-2 (KDR) = target: T4, VEGFR-2 (KDR) (Homo sapiens, UniProt P35968); assay: [125I]VEGF binding in transfected PAEKDR cell lines; conditions: PAEKDR cells expressing WT-TIMP3
T4 construct: To determine whether these receptor isoforms represent full-length VEGFR-2; expressed in transfected cells; host or cells: porcine aortic endothelial (PAE) cells
T4 sequence (P35968 20-1356): as the sequence (P35968 20-1356) above
Experimental: PAEKDR cells were transfected with TIMP3 cDNA or empty vector using Lipofectamine reagent (Gibco-BRL Rockville, Md.). Stable clones were isolated using Hygromycin selection.
After washing, the cell monolayers were solubilized with lysis buffer (20 mM Tris HCl pH 7.5, 1% triton X 100 and 10% glycerol), and the radioactivity measured in a gamma counter.

soluble VEGFR-2 = assay: Soluble VEGFR-2 (sKDR) in conditioned medium (ELISA); format: cell-based, human; conditions: WT-TIMP3 cells; data not shown
PAEKDR cells [4] = assay: VEGF-stimulated actin reorganization / membrane ruffles; format: cell-based, porcine; conditions: 50 ng/ml VEGF for 15 min
Experimental: For immunostaining, subconfluent cells cultured on Falcon cultureslides (BD, Biosciences) were used. For surface KDR detection, cells were fixed in 1% paraformaldehyde for 10 min at 4° C. Following blocking with 1% BSA cells were incubated with anti-extracellular VEGFR-2 monoclonal antibody for 1 h at room temperature. Surface KDR was detected with biotinylated anti-mouse […] (1:1000) and Texas Red avidin D (1:1500) using standard procedures. […] The cells were fixed with 3.7% paraformaldehyde in PBS for 30 min at 4° C. and permeabilized with 0.2 Triton X-100 for 20 min at room temperature. Following rinsing with PBS the cells were incubated with fluorescein isothiocyanate (FITC)-labeled phalloidin in PBS (0.66 μg/ml, Sigma) for 20 min at room temperature washed with PBS and analyzed by fluorescence microscopy.

PAEKDR cells [5] = assay: Tube formation assay in type 1 collagen gels; format: cell-based, porcine; conditions: 50 ng/ml VEGF; three-dimensional collagen gels
Experimental: Type 1 collagen was mixed with 10×DMEM and 0.1 M NaOH (8:1:1), adjusted to a solution containing 10 μg/ml growth factor reduced matrigel matrix (BD, Biosciences), and then distributed in 48-well dishes. […] After 4 h of incubation at 37° C., a second layer of collagen was added, and cultures were kept under the same conditions as above described. Tube formation was examined using a phase-contrast microscopy at the indicated time points.

B1: TIMP3: tissue inhibitor of metalloproteinases-3; recombinant human form expressed in NSO myeloma cells, or wild-type expressed in transfected cells (protein, listed as Homo sapiens)
chain: MTPWLGLIVLLGSWSLGDWGAEACTCSPSHPQDAFCNSDIVIRAKVVGKKLVKEGPFGTLVYTIKQMKMYRGFTKMPHVQYIHTEASESLCGLKLEVNKYQYLLTGRVYDGKMYTGLCNFVERWDQLTLSQRKGLNYRYHLGCNCKIKSCYYLPCFVTSKNECLWTDMLSNFGYPGYQSKHYACIRQKGGYCSWYRGWAPPDKSIINATDP
CAMs in which VEGF-induced branching and leakage of blood vessels were inhibited ([1]; 0.75 μg/disk, n=8): 75%
CAMs in which VEGF-induced branching and leakage of blood vessels were inhibited ([1]; […], n=10): 90%
neovascularization of tumors expressing TIMP3 vs control tumors [2]: decrease in neovascularization
inhibition of DNA synthesis in response to VEGF165 ([3H]thymidine uptake) (endothelial cells): could also inhibit DNA synthesis
apoptosis after adenovirus infection [3]: No apoptosis was observed
inhibition of VEGF165-induced phosphorylation of KDR (KDR): strongly inhibited
inhibition of PDGF-BB binding to PAE-PDGFR-β cells (PDGFR-β): Neither recombinant TIMP3 nor overexpression of TIMP3 could inhibit binding of PDGF-BB
direct binding of [125I]VEGF to coated TIMP (VEGF): did not detect direct binding
effect on binding of [125I] VEGF to KDR (VEGFR-2 (KDR)): dramatically inhibited the binding
cleaved sVEGFR-2 in the CM, less than mock cells (soluble VEGFR-2): 10 fold
VEGF-stimulated formation of membrane ruffles (PAEKDR cells [4]): did not form membrane ruffles
VEGF-stimulated tube formation (PAEKDR cells [5]): severely compromised
